This is an account of results in patent publication US20150355179A1 (CENTRE NATIONAL DE LA RECHERCHE SCIENTIFIQUE CNRS, published 2015).

The experiment addresses monomeric CDK2 (GST-CDK2/CIV in the absence of cyclin A) (UniProt P24941 1-298). Briefly: real-time fluorescence assay with Cy3-labelled sensor. The protocol:
Fluorescence emission of Cy3 was measured at 590 nm following excitation at 544 nm on Polarstar™ fluorimeter.
Fluorescence kinase assays were performed in 96-well plates in a thermostated chamber (Polarstar BMG) at 30° C. in 200 ul phosphate buffer saline, pH 7.2, 150 mM NaCl, in the presence of 5 mM MgCl2, 0.5 mM ATP, except when stated otherwise. […] Changes in Cy3 fluorescence emission were recorded at 590 nm following excitation at 544 nm. […] Data analysis and curve fitting were performed using the GraFit Software (Erathicus Ltd).

B1: GST-CDKACTH1 labelled with Cy3 (CDKACTH1-Cy3) (other)
chain: GEVVDSHLSDMLQQLHSVNASKPSERGLVRQEEAEDPASIPIFWVSKWVDYSDKYGLGYQLSDNSVGVLFNDSTRLILYNDGDSLQYIERDGTESYLTVSSHPNSLMKKITLLKYFRNYMSEHLLKAGANITPREGDELARLPYLRTWFRTRSAIILHLSNGSVQINFFQDHTKLILSPLMAAVTYIDEKRDFRTYRLSLLEEYGSSKELASRLRYARTMVDKLLSSRSASNRLKASPGAGGTGGLPGGGGCSTPKKAKKL
modifications: Cy3-maleimide coupled to the unique cysteine of the substrate sequence (position -2 of the TP phosphorylation site)
notes: The GST tag was not removed; also called CDKACT-Cy3; CDKACT-H1 biosensor; not shown: N-terminal GST tag from the pGex6P1 vector, kept on the biosensor
For the molecule B1, the binding result is “no binding”.
